These results are taken from US20260139032A1.

Where only a bound is given, the exact number is not on record here.

This assay has as its target T1, BMP-9 (UniProt Q9UK05).
T1 sequence (looked up): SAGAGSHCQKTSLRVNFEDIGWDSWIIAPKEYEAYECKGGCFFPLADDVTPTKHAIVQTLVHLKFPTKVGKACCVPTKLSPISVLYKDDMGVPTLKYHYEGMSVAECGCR
In words: cell-based or functional assay.

In turn, “P1193 (hActRIIB L33Y F58E, 10 aa linker, IgG1-DL Fc) (Fc fusion)” came in with a BMP-9 IC50 (nM), BMP-reporter HepG2 cell-based assay of 485 nM and a fold decrease of inhibition potency on BMP-9, BMP-reporter HepG2 assay of over 100 fold.
For “P1198 (hActRIIB L33Q F58E, 3 aa GGG linker, IgG1-DL Fc) (Fc fusion)” the same measures were 667 nM and over 100 fold.
